The values below come from patent publication US12637513B2, “Method of treating cancer by administering an inhibitor of erythropoietin receptor activity comprising either erythropoietin receptor or erythropoietin protein” (ImmunEdge, Inc., priority 2022, dated 2026).

One assay deals with T1, 293T/EPOR/CD131 cells (Homo sapiens, UniProt P19235).
T1 construct: expressed in transfected cells; host or cells: 293T cells, lentiviral transduction
T1 sequence (P19235 25-508): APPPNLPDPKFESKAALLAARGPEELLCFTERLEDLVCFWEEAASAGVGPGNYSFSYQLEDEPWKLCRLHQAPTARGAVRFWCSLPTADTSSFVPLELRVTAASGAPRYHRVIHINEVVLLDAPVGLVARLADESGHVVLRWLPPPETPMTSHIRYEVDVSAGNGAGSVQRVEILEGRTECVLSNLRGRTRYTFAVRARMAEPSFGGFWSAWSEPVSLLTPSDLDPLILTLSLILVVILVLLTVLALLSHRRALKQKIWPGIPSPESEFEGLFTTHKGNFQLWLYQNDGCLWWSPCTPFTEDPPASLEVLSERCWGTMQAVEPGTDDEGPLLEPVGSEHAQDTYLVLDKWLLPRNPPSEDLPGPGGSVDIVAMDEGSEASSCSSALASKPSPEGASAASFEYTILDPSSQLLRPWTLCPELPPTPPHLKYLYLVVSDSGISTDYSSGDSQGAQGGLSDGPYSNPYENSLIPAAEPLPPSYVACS
As to the kind of experiment: Staining of 293T/EPOR/CD131 cells with purified antibodies. Format: binding. As for the experimental part: (§1) The purified antibodies were used to stain the human leukemia UT-7 cells, 293T/EPOR, 293T/CD131, and 293T/EPOR/CD131 cells to confirm antigen binding. The UT-7 cells were maintained in Roswell Park Memorial Institute (RPMI) with 10% Fetal Bovine Serum (FBS) and 5 ng/ml of recombinant human GM-CSF (Peprotech®, Cat #300-03). The 293T cells expressing hEPOR, hCD131, or both were maintained in Dulbecco's Modified Eagle Medium (DMEM) with 10% FBS. 1×10^6 cells/ml were incubated with purified hybridoma clones M2 and M41 at a 3-fold dilution series starting from 20 μg/ml for 30 minutes at 4° C. After washing, the cells were incubated with PE labeled secondary antibody and subjected to flowcytometric analysis. […] The binding profiles of the 293T/EPOR/CD131 cells are similar except the peak MFIs around 1500, half of that of the 293T/EPOR cells (FIG. 29B).

Another assay addresses T2, 293T/CD131 cells (Homo sapiens, UniProt P32927).
T2 construct: expressed in transfected cells; host or cells: 293T cells, lentiviral transduction
T2 sequence (P32927 17-897): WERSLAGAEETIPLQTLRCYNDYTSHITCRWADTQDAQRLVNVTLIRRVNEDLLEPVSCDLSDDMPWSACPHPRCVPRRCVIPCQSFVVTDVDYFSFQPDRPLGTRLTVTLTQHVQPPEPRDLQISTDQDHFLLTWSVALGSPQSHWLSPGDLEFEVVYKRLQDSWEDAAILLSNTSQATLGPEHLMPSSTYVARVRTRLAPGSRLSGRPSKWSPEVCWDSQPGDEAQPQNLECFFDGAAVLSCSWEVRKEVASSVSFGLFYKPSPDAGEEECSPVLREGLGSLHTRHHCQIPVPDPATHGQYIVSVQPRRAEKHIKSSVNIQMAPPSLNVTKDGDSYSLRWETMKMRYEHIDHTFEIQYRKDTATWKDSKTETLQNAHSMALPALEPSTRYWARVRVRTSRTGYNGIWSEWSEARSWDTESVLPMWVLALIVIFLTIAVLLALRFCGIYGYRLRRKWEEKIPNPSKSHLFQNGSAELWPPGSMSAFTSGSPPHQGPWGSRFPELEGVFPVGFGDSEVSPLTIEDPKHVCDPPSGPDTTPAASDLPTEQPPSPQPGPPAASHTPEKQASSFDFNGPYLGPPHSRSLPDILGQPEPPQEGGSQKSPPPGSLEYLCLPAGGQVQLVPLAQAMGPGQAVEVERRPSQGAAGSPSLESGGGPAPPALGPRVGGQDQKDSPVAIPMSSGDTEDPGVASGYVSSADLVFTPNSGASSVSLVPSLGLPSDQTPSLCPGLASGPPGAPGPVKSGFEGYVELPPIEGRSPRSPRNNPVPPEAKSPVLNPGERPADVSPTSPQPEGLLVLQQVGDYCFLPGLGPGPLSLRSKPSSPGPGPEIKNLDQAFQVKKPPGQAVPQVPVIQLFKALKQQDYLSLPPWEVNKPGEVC
As to the kind of experiment: Staining of 293T/CD131 cells with purified antibodies. In kind it is binding. As for the experimental part: as §1

B1: EPORab - M2: hybridoma antibody clone, VH/VK in Table 10 (antibody, V domains shown)
VH: QVQLVESGGGLVKPGGSLRLSCAASGFTFSDSYMSWIRQAPGKGLEWVSYISNSGSYMYYADSVKGRFTISRDNAKNSLYLQMNNLRAEDTAVYYCARDKLGIGDYWGQGTLVTVSS
VL: DIQMTQSPSSLSASVGDRVTITCRASQGIRNDLGWFQQKPGKAPKRLIYAASRLQSGVPSRFSGSGSGTEFTLTISSLQPEDFATYCCLQHHTYPPTFGQGTKVEIK
Turning to B1, the “peak MFI” value with 293T/EPOR/CD131 cells is given as “around 1500”. Besides, the “staining of 293T/CD131 cells” value in the assay with 293T/CD131 cells is given as “did not stain”.
